{"source": "patent EP4711453A1", "about": "“PHENYLALANINE LYASE MUTANT, AND CONJUGATE THEREOF OR PHARMACEUTICALLY ACCEPTABLE SALT THEREOF” (Peg-Bio Biopharm Co., Ltd. (Chongqing), priority 2023, dated 2024)", "molecules": {"B1": {"name": "PL54-5: polyethylene glycol conjugate of PAL4 (SEQ ID NO: 6) with PEG-SPA-5K, molar ratio 1:16, average degree of modification 13.60 (conjugate)", "chain": "MKTLSQAQSKTSSQQFSFTGNSSANVIIGNQKLTINDVARVARNGTLVSLTNNTDILQGIQASCDYINNAVKSGEPIYGVTSGFGGMANVAISREQASELQTNLVWFLKTGAGNKLPLADVRAAMLLRANSHMRGASGIRLELIKRMEIFLNAGVTPYVYEFGSIGASGDLVPLSYITGSLIGLDPSFKVDFNGKEMDAPTALRQLNLSPLTLLPKEGLAMMNGTSVMTGIAANCVYDTKILTAIAMGVHALDIQALNGTNQSFHPFIHNSKPHPGQLWAADQMISLLANSQLVRDELDGKHDYRDHELIQDRYSLRCLPQYLGPIVDGISQIAKQIEIEINSVTDNPLIDVDNQASYHGGNFLGQYVGMGMDHLRYYIGLLAKHLDVQIALLASPEFSNGLPPSLLGNRERKVNMGLKGLQICGNSIMPLLTFYGNSIADRFPTHAEQFNQNINSQGYTSATLARKSVDIFQNYVAIALMFGVQAVDLRTYKKTGHYDARASLSPATERLYSAVRHVVGQKPTSDRPYIWNDNEQGLDEHIAKISADIAAGGVIVQAVQDILPSLH", "modifications": "PEG-SPA-5K conjugate, ~13.6 PEG per molecule"}}, "key": {"[1]": {"assay": "Specific enzyme activity of phenylalanine lyase (trans-cinnamic acid formation, absorbance at 290 nm)", "format": "biochemical", "experimental": "Phenylalanine lyase specifically catalyzes the conversion of phenylalanine into trans-cinnamic acid with the release of ammonia. […] Enzyme activity is defined as the amount of enzyme required to produce 1 µmol of trans-cinnamic acid per minute in buffer (100 mmol/L Tris-HCl, pH 8.5) at room temperature (25°C) as one unit of enzyme activity.\nThe specific enzyme activity of phenylalanine lyase and its mutants (i.e., PAL, PAL2, PAL3, and PAL4 proteins) prepared in Example 1 was evaluated by taking an appropriate amount of test sample and diluting it to 0.4 mg/ml using assay buffer (100 mmol/L Tris-HCl, pH 8.0). 2.9 ml of substrate solution (100 mmol/L Tris-HCl, 45 mmol/L Phe, pH 8.0) was placed in a cuvette, followed by addition of 0.1 ml of diluted test solution and immediate mixing. The changes in absorbance per minute were recorded at a wavelength of 290 nm, and the specific enzyme activity was calculated according to the formula. Enzyme activity (U/mg) = (AS−AO)VN × 10^6 /εLTV1 [formula]\nWhere AS and AO represent the absorbance of trans-cinnamic acid at the […] of the reaction, respectively; V is the total volume (L) of the reaction system; L is the optical path length of the cuvette (cm); ε is the molar extinction coefficient of trans-cinnamic acid (10238.1 L/(mol·cm)); T is the reaction time (min); N is the dilution factor of the test sample; V1 is the volume of test sample (ml).\nThe enzyme activity retention rate was calculated by comparing the specific enzyme activity of phenylalanine lyase mutants with the specific enzyme activity of the phenylalanine lyase. Table 2: Specific enzyme activity of phenylalanine lyase mutants\nThe specific enzyme activity of the polyethylene glycol conjugates of phenylalanine lyase and its mutants prepared in Step 1 of Example 2 was determined according to the method described in Step 1 of this example. The enzyme activity retention rate was calculated by comparing the specific enzyme activity of each conjugate with its specific enzyme activity prior to PEG modification (e.g., the enzyme activity retention rate of PL5-1 = specific enzyme activity of PL5-1 / specific enzyme activity of PAL protein). Table 3: Specific enzyme activity of PEGylated phenylalanine lyase mutants"}, "[2]": {"assay": "Serum drug concentration after a single administration in phenylketonuria model mice (sandwich ELISA)", "format": "in vivo", "set-up": "Blood drug concentration in serum: unit not given here", "conditions": "Pah^enu mice", "text": "(§1) Phenylalanine hydroxylase (PAH) was central to phenylalanine metabolism in animals, catalyzing the conversion of phenylalanine to tyrosine. Deficiency of this gene underlies phenylketonuria. […] Therefore, the homozygous mouse carrying the missense mutation F263S can be used as an animal model for phenylketonuria (referred to as the Pah^enu mouse or model mouse) in this drug study.\nTo evaluate the polyethylene glycol conjugate PL54 of the site-saturation modified phenylalanine lyase mutant, six Pah^enu mice were assigned to three groups of two mice each. PL54-5 (average degree of modification 13.60, specific enzyme activity 1.27 U/mg) from Table 3 of Example 2 was administered to the phenylketonuria animal model mice at low, medium, and high doses of 0.5 mg/kg, 1.5 mg/kg, and 4.5 mg/kg, respectively, via subcutaneous injection. Blood samples were collected from mice in each group at 1 h before administration and at 1, 3, 5, 7, 10, and 14 days after administration, respectively, and the content of PL54-5 in serum was detected by sandwich ELISA (for details, see Example 5)."}, "[3]": {"test_system": "serum phenylalanine", "assay": "Serum phenylalanine concentration after multiple administrations in phenylketonuria model mice (LC-MS/MS)", "format": "in vivo", "conditions": "Pah^enu mice", "text": "as §1\nTo evaluate the polyethylene glycol conjugate PL54 of site-saturation modified phenylalanine lyase mutant, […] Pah^enu mice were allocated into five groups (four experimental groups and one control group), with six mice in each group. PL54-5 (average degree of modification 13.60, specific enzyme activity 1.27 U/mg) from Table 3 of Example 2 was administered to phenylketonuria animal model mice at low, medium, and high doses of 0.5 mg/kg, 1.5 mg/kg, and 4.5 mg/kg, respectively, via subcutaneous injection. The high-dose group of 4.5 mg/kg also included a group receiving intramuscular administration, once per week. The control group was administered phosphate buffered saline as a placebo subcutaneously once weekly. Blood samples were collected from mice in each group at 1 h before administration and at 2, 5, and 7 days after administration for each group. The content of PL54-5 in serum, changes in phenylalanine concentration (Reference: Judy Peat et al., Determination of Phenylalanine and Tyrosine by High Performance Liquid Chromatography-Tandem Mass Spectrometry), and Anti-PEG-IgM/IgG antibody titers (see Example 5 for details) were detected by sandwich ELISA (see Example 5 for details), and their pharmacokinetics were evaluated, see FIG. 6 to FIG.9 for details."}, "[4]": {"test_system": "anti-PAL4 protein antibodies", "assay": "Anti-PAL4 protein antibody after multiple administrations in phenylketonuria model mice", "format": "in vivo", "conditions": "Pah^enu mice"}, "[5]": {"assay": "Subcutaneous/intravenous pharmacokinetics in dogs (double-antibody sandwich ELISA)", "format": "in vivo", "conditions": "beagle dogs; for dogs with accelerated blood clearance: 2 mg/kg once weekly", "experimental": "[…] Six beagle dogs were equally divided into two groups: the subcutaneous administration group and the intravenous administration group. […] Blood samples were collected from both groups on days 1, 3, 5, and 7 after the first administration, and on Day 1 and Day 3 after each subsequent administration. Serum plasma drug concentrations were measured using the double-antibody sandwich ELISA method (see Example 5 for details)."}}, "note": "Several values for one entry are separate records, joined by “and”; a condition that tells them apart may be missing. Identical values can stand only once."}
{"molecule": "B1", "values": [{"measurement": "Enzyme activity retention rate", "setting": "[1]; conjugate compared with its protein prior to PEG modification", "value": 83, "unit": "%"}, {"measurement": "Specific enzyme activity", "setting": "[1]; polyethylene glycol conjugates, method as for the proteins", "value": 1.27, "unit": "U/mg"}, {"measurement": "Blood drug concentration in serum", "setting": "[2]; single 0.5 mg/kg s.c., 1-D1, dilution 1:500", "value": 0.3}, {"measurement": "Blood drug concentration in serum", "setting": "[2]; single 0.5 mg/kg s.c., 1-D3, dilution 1:500", "value": 2.4}, {"measurement": "Blood drug concentration in serum", "setting": "[2]; single 0.5 mg/kg s.c., 1-D5, dilution 1:500", "value": 0.9}, {"measurement": "Blood drug concentration in serum", "setting": "[2]; single 0.5 mg/kg s.c., 1-D7, dilution 1:500", "value": 0.2}, {"measurement": "Blood drug concentration in serum", "setting": "[2]; single 0.5 mg/kg s.c., 1-D10, dilution 1:500", "value": 0.1}, {"measurement": "Blood drug concentration in serum", "setting": "[2]; single 0.5 mg/kg s.c., D0 (1 h before administration), dilution 1:50", "value": 0}, {"measurement": "Blood drug concentration in serum", "setting": "[2]; single 1.5mg/kg s.c., 1-D1, dilution 1:500, 1.5 mg/kg", "value": "0.5 and 0.6"}, {"measurement": "Blood drug concentration in serum", "setting": "[2]; single 1.5mg/kg s.c., 1-D3, dilution 1:500, 1.5 mg/kg", "value": "2.7 and 2.2"}, {"measurement": "Blood drug concentration in serum", "setting": "[2]; single 1.5mg/kg s.c., 1-D5, dilution 1:500", "value": 0.9}, {"measurement": "Blood drug concentration in serum", "setting": "[2]; single 1.5mg/kg s.c., 1-D7, dilution 1:500, 1.5 mg/kg", "value": "0.4 and 0.3"}, {"measurement": "Blood drug concentration in serum", "setting": "[2]; single 1.5mg/kg s.c., D0 (1 h before administration), dilution 1:50", "value": 0}, {"measurement": "Blood drug concentration in serum", "setting": "[2]; single 4.5 mg/kg s.c., 1-D1, dilution 1:500, 4.5 mg/kg", "value": "1.6 and 0.8"}, {"measurement": "Blood drug concentration in serum", "setting": "[2]; single 4.5 mg/kg s.c., 1-D3, dilution 1:500, 4.5 mg/kg", "value": "2.6 and 2.9"}, {"measurement": "Blood drug concentration in serum", "setting": "[2]; single 4.5 mg/kg s.c., 1-D5, dilution 1:500, 4.5 mg/kg", "value": "1.9 and 1.2"}, {"measurement": "Blood drug concentration in serum", "setting": "[2]; single 4.5 mg/kg s.c., 1-D7, dilution 1:500, 4.5 mg/kg", "value": "0.8 and 0.4"}, {"measurement": "Blood drug concentration in serum", "setting": "[2]; single 4.5 mg/kg s.c., 1-D10, dilution 1:500", "value": 0}, {"measurement": "Blood drug concentration in serum", "setting": "[2]; single 4.5 mg/kg s.c., 1-D14, dilution 1:500", "value": 0.2}, {"measurement": "Blood drug concentration in serum", "setting": "[2]; single 4.5 mg/kg s.c., D0 (1 h before administration), dilution 1:50", "value": 0}, {"measurement": "plasma drug concentration in relation to the administration dose", "setting": "[2]; single s.c. injection, 0.5, 1.5 and 4.5 mg/kg", "value": "directly proportional to the administration dose"}, {"measurement": "efficacy after intramuscular administration", "setting": "[3]; 4.5 mg/kg intramuscular once per week", "value": "consistent with that after subcutaneous administration"}, {"measurement": "serum phenylalanine", "setting": "[3]; high dose 4.5 mg/kg s.c., within 2 days after the first administration", "value": "below the method detection limit"}, {"measurement": "reduction of serum phenylalanine levels", "setting": "[3]; high-dose group 4.5 mg/kg s.c., after five repeated administrations, within 2 days", "value": "more than 90%"}, {"measurement": "decrease of serum phenylalanine levels", "setting": "[3]; medium-dose group 1.5 mg/kg s.c., after five repeated administrations", "value": "approximately 75%"}, {"measurement": "anti-PAL4 protein antibodies", "setting": "[4]; intramuscular administration group", "value": "weak positivity"}, {"measurement": "anti-PAL4 protein antibodies", "setting": "[4]; subcutaneous administration group", "value": "negative"}, {"measurement": "bioavailability of subcutaneous administration relative to intravenous administration", "setting": "[5]; 2 mg/kg", "value": 64.4, "unit": "%"}, {"measurement": "dogs with accelerated blood clearance", "setting": "[5]; after multiple intravenous administrations", "value": "2/3"}, {"measurement": "dogs with accelerated blood clearance", "setting": "[5]; after multiple subcutaneous administrations", "value": "1/3"}, {"measurement": "peak time of blood drug concentration", "setting": "[5]; 2 mg/kg, single intravenous administration", "value": 1, "unit": "days"}, {"measurement": "peak time of blood drug concentration", "setting": "[5]; 2 mg/kg, single subcutaneous administration", "value": 3, "unit": "days"}]}
